How the values were obtained:
[1] = system: Pfg binding to fibrinogen; assay: Inhibition of biotinylated Pfg binding to coated fibrinogen; design: species or system Propionibacterium acnes; conditions: biotinylated Pfg pretreated with increasing amount of recombinant peptide 1 h at 37° C.; fibrinogen coated 25 μg per well
Procedure: FIG. 9: Dose-dependent inhibition of biotinylated Pfg binding to fibrinogen by fibrinogen-derived peptide. Biotinylated PFg (0.4 mg) was pretreated with increasing amount of recombinant peptides Fg1 (♦), Fg2 (▪) or BSA as control (●) for 1 h at 37° C., and the binding activity to coated fibrinogen on polystyrene plate (25 μg per well) was evaluated. Results are expressed as mean±SD. Each point was done in quadruplet.
Since it has been shown that only Fg1 was able to recognize Pfg, biotinylated Pfg was pre-treated with various concentrations of purified Fg1 and tested its ability to recognize immobilized fibrinogen. Fg2 and BSA were used as neative controls (FIG. 9).

ThP1 cells = assay: O2°− production by P. acnes-stimulated ThP1; assay type: cell-based, human; conditions: 0.87 to 7 μM
Procedure: (§1) For experiences of stimulation with P. acnes, cells were incubated with the P. acnes suspension adjusted at the appropriate concentration, pre-treated for 1 h at 37° C. or not with fibrinogen recombinant peptides Fg1 and Fg2 at the concentrations 0.87, 1.75, 3.5 or 7 μM for the desired period of time at 37° C. in 5% CO2.
All cells lines (5·10^4 to 10^5 cells/well) were seeded in 96-well plates (Corning Costar, Brumath, France) and treated as previously described. After stimulation, cells were washed three times in PBS and incubated with 100 μl per wells of 5 μM DHE (for determination of O2^●−) or 5 μM H2-DCFDA (for determination of H2O2) for 30 min as described previously and fluorescence intensity was recorded every hour over a period of 5 h. Fluorescence excitation/emission maxima were for DHE: 480/610 nm and for H2-DCFDA: 507/525 nm. At the end of the experiment, the number of adherent cells was evaluated by the crystal violet assay as described below. O2^●−, and H2O2 were assayed by spectrofluorimetry on a Fusion spectrofluorimeter (PackardBell, Paris, France). Levels of ROS were calculated in each sample as follows: reactive oxygen species rate (arbitrary units/min/10^6 cells)=(fluorescence intensity [arbitrary units] at T5h—fluorescence intensity [arbitrary units] at To/300 minutes/number of adherent cells as measured by the crystal violet assay, and were expressed as arbitrary unit (A.U.).
(§2) To assess the efficacy of Fg1 recombinant peptide, the production of O2^∘− and H2O2 by HaCaT cells NHDK, THP-1, MRC5 and HDF stimulated by pretreated P. acnes strains 6919, RON and PIE was measured. The amount of ROS produced was compared to that produced by the stimulated cells with untreated bacteria. Production baseline was obtained by measuring ROS on unstimulated cells. The production of IL-1ß, IL-8, IL-12 and TNF-α was also measured in all conditions cited above. The measurement of the production of ROS is performed by spectrofluorimetry in the presence of specific fluorochromes directly on the monolayer cell. Measurement of cytokine production was performed in parallel on the cell culture supernatant.
(§3) Two sets of experiments were implemented: 1) The cells were stimulated (18 h at 37° C.) by P. acnes strains previously pretreated with Fg1 and Fg2 peptides at the final concentrations ranging from 0.87 to 7 μM for 1 h at 37° C.; and 2) The cells were pretreated first with Fg1 and Fg2 peptides at the final concentrations ranging from 0.87 to 7 μM for 24 h at 37° C. and stimulated (18 h at 37° C.) by P. acnes strains.

HaCaT cells = assay: IL-8 production by P. acnes-stimulated HaCaT (ELISA); assay type: cell-based, human; conditions: 0.87 to 7 μM
Procedure: as §1
Human IL-1ß, IL-8, IL-12, hBD-2, and TNF-α protein concentration was measured in the supernatants of stimulated cells using various ELISA Set kits (Ready-Set-Go kit from eBioscience for acne experiments, and for psoriasis experiments the Duo set IL-8 kit from R&D Systems and the BD-2 Human Development (hBD-2) from Peprotech) according to the manufacturer's instructions. We used serial dilutions of recombinant human IL-1ß, IL-8, IL-12 and TNF-α for standard curve. The optical density was determined at 450 nm at a wavelength correction of 540 nm.
as §2
as §3, with “strains. […]” for “strains.”
Immortalized keratinocytes HaCaT cell were seeded in 96-well plates at 10^5 cells/well (Corning Costar, Brumath, France) and stimulated with P. acnes 6919 strain (O.D.620 nm=0.3) pretreated 1 h at 37° C. with the Fg1 and Fg1.1.1 peptides at the concentrations of 2.5, 5 and 10 μM for 18 h at 37° C. under 5% CO2. Then, culture supernatant was removed and the IL-8 concentration was measured by ELISA assay (eBioscience).

NHDK cells = assay: H2O2 production by keratinocytes stimulated by lipoteichoic acid (LTA); assay type: cell-based, human; conditions: NHDK pre-treated 24 h with 1.75 to 7 μM, then LTA 10 μg/ml
Procedure: FIG. 18: Dose-dependent inhibition of H2O2 production by keratinocyte pre-treated by small Fg1-generated peptides and stimulated by lipoteichoic acid (LTA). NHDK cell were incubated for 24 h with recombinant peptide Fg1 (light gray bar) and Fg2 (dark gray bar) at concentrations ranging from 1.75 to 7 μM. Measurement of hydrogen peroxide production was realized by spectrofluorometry as described in Materials and Methods. Controls experiments were done with unstimulated NHDK cell (white bar) and HDF stimulated with LTA at 10 μg/ml (black bar). Data are means±S.D. of three separate experiments. Statistical significance is indicated by * (P<0.05), ** (P<0.01), *** (P<0.001), and **** (P<0.0001), respectively. […]
All cells lines (5·10^4 to 10^5 cells/well) were seeded in 96-well plates (Corning Costar, Brumath, France) and treated as previously described. After stimulation, cells were washed three times in PBS and incubated with 100 μl per wells of 5 μM DHE (for determination of O2^●−) or 5 μM H2-DCFDA (for determination of H2O2) for 30 min as described previously and fluorescence intensity was recorded every hour over a period of 5 h. Fluorescence excitation/emission maxima were for DHE: 480/610 nm and for H2-DCFDA: 507/525 nm. At the end of the experiment, the number of adherent cells was evaluated by the crystal violet assay as described below. […]

[2] = P. acnes 6919, set I, bacteria first pretreated
[3] = P. acnes 6919, set II, cells first pretreated
[4] = P. acnes PIE, set I, bacteria first pretreated
[5] = P. acnes PIE, set II, cells first pretreated
[6] = P. acnes RON, set I, bacteria first pretreated
[7] = P. acnes RON, set II, cells first pretreated

B1: MKRMVSWSFHKLKTMKHLLLLLLCVFLVKSQGVNDNEEGFFSARGHRPLDKKREEAPSLRPAPPPISGGGYRARPAKAAATQKKVERKAPDAGGCLHADPDLGVLC (protein)
chain: MKRMVSWSFHKLKTMKHLLLLLLCVFLVKSQGVNDNEEGFFSARGHRPLDKKREEAPSLRPAPPPISGGGRARPAKAAATQKKVERKAPDAGGCLHADPDLGVLCMKRMVSWSFHKLKTMKHLLLLLLCVFLVKSQGVNDNEEGFFSARGHRPLDKKREEAPSLRPAPPPISGGGYRARPAKAAATQKKVERKAPDAGGCLHADPDLGVLC
modifications: GST fusion; fragment Fg1
notes: fragment of Bß chain of human fibrinogen having 106 amino acids; recombinant GST-fused peptide expressed in E. coli
Inhibition of the recognition between Pfg and human fibrinogen [1]: dramatically decreased
Inhibition of Superoxide anion (O2°−) production (ThP1 cells; [2]): pos
Inhibition of Superoxide anion (O2°−) production (ThP1 cells; [3]): pos
Inhibition of Superoxide anion (O2°−) production (ThP1 cells; [4]): pos
Inhibition of Superoxide anion (O2°−) production (ThP1 cells; [5]): pos
Inhibition of Superoxide anion (O2°−) production (ThP1 cells; [6]): pos
Inhibition of Superoxide anion (O2°−) production (ThP1 cells; [7]): pos
Inhibition of Interleukine 8 (IL-8) production (HaCaT cells; [2]): pos
Inhibition of Interleukine 8 (IL-8) production (HaCaT cells; [3]): pos
Inhibition of Interleukine 8 (IL-8) production (HaCaT cells; [4]): pos
Inhibition of Interleukine 8 (IL-8) production (HaCaT cells; [5]): pos
Inhibition of Interleukine 8 (IL-8) production (HaCaT cells; [6]): pos
Inhibition of Interleukine 8 (IL-8) production (HaCaT cells; [7]): pos
Decrease of H2O2 production by LTA-stimulated cells (NHDK cells): significantly decreases production of H2O2
